From the RNAGym collection of RNA variant scans (doi:10.1073/pnas.2313332121) come the findings set out here.

To fix the notation:
B1: TPR t1 (parent)
chain: GACCAAUCUGCCCUCAGAGCUCGAGAACAUCUUCGGAUGCAGAGGAGGCAGGCUUCGGUGGCGCGAUAGCGCCAACGUCCUCAACCUCCAAUGCAUCCCACCACAUGAUGAUGCCUGAAGAGCCUUGGUUUUUUG

Variants of B1 are the subject of the series. Nature of the series: polymerase ribozyme fitness, log enrichment relative to wild type (log ratio); higher = more active; in vitro selection for triplet polymerase activity. An outline of the steps: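 Each subunit of a heterodimeric triplet polymerase ribozyme was mutagenized into a library by PCR, transcribed, and subjected to one round of in vitro selection, run in triplicate. Libraries were annealed with a biotinylated primer, the partner subunit and triplets, incubated frozen at −7 °C, and extended constructs were gel-excised, captured on streptavidin beads and recovered by RT-PCR. Input and output libraries were sequenced on Illumina, keeping genotypes with ≥10 input reads and ≥1 read per output. Fitness is log base 2 of genotype enrichment divided by wild-type enrichment, from inverse-variance-weighted replicate averages.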
Turning to GACCAAUAUGCCCUCAGAGCUCGAGAACAUCUUCGGAAGCAUAGAAGGCAGGCUUCGGUGUCGCGAUAGCGCCAACGUCCUCAACCUCCAAUGCAUCCCACCACAUGAUGAUGCCUGAAGAGCCUUGGUUUUUUG, the “polymerase ribozyme fitness (log ratio)” value was -1.89.
With GACCAAUAUGCCCUCAGAGCUCGAGAACAUCUUCGGAUGCAGAGGAGGCAGGCUGCGGUGGCGCGAUAGCGCCAACGUCCUCAACCUCCAAUGCAUCCCACCACAUGAUGAUGAUUGAAGAGCCUUGGUUUUUUG, the “polymerase ribozyme fitness (log ratio)” value was -2.83.
GACCAAUAUGCCCUCAGAGCUCGAGAACAUCUUCGGAUGCAGAGGAGGCAGGCUUCGGUGGCGCGAUAGCGCCAACAUCCUCAACCUCCAAUGCAUCCCACCACAUGAUGAUGCCUGAAGAGCCUUGGUUUUUUG: the “polymerase ribozyme fitness (log ratio)” value was 0.514.
In the case of GACCAAUAUGCCCUCAGAGCUCGAGAACAUCUUCGGAUGCAGAGGAGGCAGGCUUCGGGGGCGCGAUAGCGCCAACGUCCUCAACCUCCAAUGCAUCCCACCACAUUAUGAUGCCUGAAGAGCCUUGGUUUUUUG, the “polymerase ribozyme fitness (log ratio)” value is -5.05.
Consider GACCAAUAUGCCCUCAGAGCUCGAGAACAACUUCGGAUGCAGAGGCGGCAGGCUUCGGUGGCGCGAUAGCGCCAACGUCCUCAACCUCCAAUGCAUCCCACCACACGAUGAUGCCUGAAGAGUCUUGGUUUUUUG, for which the “polymerase ribozyme fitness (log ratio)” value is -5.15.
With GACCAAUAUGCCCUCAGAGCUCGAGAACAUCUUCGGAUGCAGAGGAGGCAGGCUUCGGUGGCGCGAUAGCGCCAACGUCCUCAACCUCCAAUACAUCCCACCACAUGAUGAUGCCUUAAGAGCCUUGUUUUUUUG the figure was -4.74; with GACCAAUAUGCCCUCAGAGCUCGAGAACAUCUUCGGAUGCAGAGGAGGCAGGCUUCGGUGGCGCGAUAGCGCCAACGUCCUCAACCUCCAAUGCAUCCCACCACAUGAAGAUGCCUGAAGAGCCUUGGUUUUUUG, -4.14.
Turning to GACCAAUAUGCCCUCAGAGCUCGAGAACAUCUUCGGAUGCAGAGGAGGCAGGCUUCGGUGGCGCGAUAGCGCCAACGUCCUCAACCUCCAACGCAUCCCACCACAUGAUGAUGCCUGAAGAGCCUUGGUUUUUUG, the “polymerase ribozyme fitness (log ratio)” value is -0.565.
For the variant GACCAAUAUGCCCUCAGAGCUCGAGAACAUCUUCGGAUGCAGAGGAGGCAGGCUUCGGUGGCGCGAUAGCGCCAACGUCCUCAACCUCCAAUCCAUCCCCCCACAUGAUGAUGCUUGAAGAGCCUUGGUUUUUUG, the “polymerase ribozyme fitness (log ratio)” value was -4.5.
Take GACCAAUAUGCCCUCAGAGCUCGAGAACAUCUUCGGAUGCAGAGGAGGCAGGCUUCGGUGGCGCGAUAGCGCCAACGUCCUCAACCUCCAAUGCAUCCCACCACAUGAUGAAGCCUGAAGAGCCUUGGUUUUUUG: the “polymerase ribozyme fitness (log ratio)” value came out at 1.61.
Take GACCAAUAUGCCCUCAGAGCUCGAGAACAUCUUCGGAUGCAGAGGAGGCAGGCUUCGGUGGCGCGAUAGCGCCAACGUCCUCAACCUCCAAUGCAUCCCACCACAUGAUGAGGCCUGAAGAGCCUUGGUUUUUUG: the “polymerase ribozyme fitness (log ratio)” value is 0.614.
As for GACCAAUAUGCCCUCAGAGCUCGAGAACAUCUUCGGAAGCAGAGGCGGCAGGCUUCGGUGGCGCGAUAGCGUCAACGUCCUCAACCUCCAAUGCAUCCCACCACAUGAUGAUGCCUGAAGAGCCUUGGUUUUUUG, the “polymerase ribozyme fitness (log ratio)” value is -1.72.
Regarding GACCAAUAUGCCCUCAGAGCUCGAGAACAUCUUCGGAUGCAGAGGAGGCAGGCUUCGGUGGCGCGAUAGCGCCAACGUCCUCAACCUCCAAUGCACCCCACCACAUGAUGAUGCCGGAAGAGCCUUGGUUUUUUG, the “polymerase ribozyme fitness (log ratio)” value was -0.0172.
For GACCAAUAUGCCCUCAGAGCUCGAGAACAUCUUCGGAUGCAGAGGAGGCAGGCUUCGGUGGCGCGAUAGCUCCAACGUCCUCACCCUCCAAUGCGUCCCACCACAUGAAGAUGCCUGAAGAGCCUAGGUUUUUUG, the “polymerase ribozyme fitness (log ratio)” value was -5.61.
As to GACCAAUAUGCCCUCAGAGCUCGAGAACAUCUUCGGAUGCAGAGGAGGCAGGCUUCGGUGGCGCGAUAGCGCCAACGUCCUCAACCUCCAAUUCAUCCCACCACAAGAUGAUGCCUGAAGAGCCUUGGUUUUUUG, the “polymerase ribozyme fitness (log ratio)” value is -0.449.
With GACCAAUAUGCCCUCAGAGCUCGAGAACAUCUUCGGAUGCAGAGGAGGCAGGCUUCGGUGGCGCGAUAGCGCCAACUUCCUCAACCUCCAAUGCAUCCCACCACAGGAUGAUGCGUGAAGAGCCUUGGUUUUUUG the figure was -1.95; with GACCAAUAUGCCCUCAGAGCUCGAGAACAUCUUCGGAUGCAGAGGAGGCAGGCUUCGGUGGCGCGAUAGCGCCAACGUCCUCAACCUCCAAUGCAUCCCACCACAUGAUUAUGCCUGAAGAGCCUUGGUUUUUUG, -0.434; with GACCAAUAUGCCCUCAGAGCUCGAGAACAUCUUCGGAUGCAGAGGAGGCAGGCUUCGGGGGCGCGAUAGCGGCAACGUCCUCAACCUCCAAUGCAUCCCACCACAUGAUGAUGCCUGAAGAGCCUUGGUUUUGUG, -3.35.
As for GACCAAUAUGCCCUCAGAGCUCGAGAACAUCUUCGGAUGCAGAGGAGGCAGGCUUCGGUGGCGCGAUAGCGCCAACGUCCUCAACCACCAAUGCAUCCCACCACAUCAUGAUGCCUGAAGAGCCUUGGUUUUUUG, the “polymerase ribozyme fitness (log ratio)” value is -4.36.
Consider GACCAAUAUGCCCUCAGAGCUCGAGAACAUCUUCGGAUGCAGAGGAGGCAGGCUUCGGUGGCGCGAUAGCGCCAACUUCCUAAACCUCCAAUGCAUCCCACCACAUGAUGAUGCCUGAAGAGCCUUGGUUUUUUG, for which the “polymerase ribozyme fitness (log ratio)” value was 0.031.
In the case of GACCAAUAUGCCCUCAGAGCUCGAGAACAUCUUCGGAUGCAGAGGAGGCAGGCUUCGGUGGCGCGAUAGCGCCAACGUCCUCAACCUCCAAUGCACCCCACCACAUGAUGAUGCCUGAAGAGACUUGGUUUUUUG, the “polymerase ribozyme fitness (log ratio)” value stood at 1.93.
Regarding GACCAAUAUGCCCUCAGAGCUCGAGAACAUCUUCGGAUGCAGAGGAGGCAGGCUUCGGUGGCGCGAUAGCGCCAACGUCCUCAACCUCCAAUACAUCCCACCACAUGGUGAUGCCUGAAGAGCCUUGGUUUUUUG, the “polymerase ribozyme fitness (log ratio)” value was -2.37.
With GACCAAUAUGCCCGCAGAGCUCGAGAACAUCUUCGGAUGCAGAGGAGGCAGGCUUCGGUGUCGCGAUAGCGCCAACGUCCUCAACCUCCAAUGCAUCCCACCACAUGAUGAUGCCUGAAGAGACUUGGUUAUUUU the figure was 1.21; with GACCAAUAUGCCCUCAGAGCUCGAGAACAUCUGCGGUUGCAGAGGAGGCAGGCUUCGGUGGCGCGAUAGCGCCAACGUCCUCAACCUCCAAUGCAUCCCACCACAUGAUGAUGCCUGAAGAGCCUUGGUUUUUUG, -6.73.
For GACCAAUAUGCCCUCAGAGCUCGAGAACAUCUUCGGAUGCAGAGGAGGCAGGCUUCGGUGGCGCGAUAGCGCCAACGUCCUCAACCUCCAAUGCAUCCCACCACAUGAUGAUGCCUAAAGUGCCUUGGUUUUUUG, the “polymerase ribozyme fitness (log ratio)” value is 1.21.
With GACCAAUAUGCCCUCAGAGCCCGAGAACAUCUUCGGAUGCAGAGGAGGCAGGCUUCGGUGGCGCGAUAGCGCCAACGUCCUCGACCUCCAAUGCAUCCCACCACAUGAUGAUGCCUAAAGAGCCUUGGUUUUUUG the figure was -1.39.
With GACCAAUAUGCCCUCAGAGCUCGAGAACAUCUUCGGAUGCAGAGGAGGCAGGCUUCGGUGGCGCGAUAGCGCCAACGCCCUCAACCUCCAAUGCAUCCCACCACACGAUGAUGUCUGAAGAGCCUUGGUUUUUUG the figure was -2.11; with GACCAAUAUGCCCUCAGAGCUCGAGAACAUCUUCGGAUGCAGAGGAGGCAGGCUUCGGUGGCGCGAUAGCGCCAACGUCCUCAACCUCCAAUGCAUCCCACCACAUGAUGAUGCCUGAAGAGCCUUGGCUUUUUG, -1.05; with GACCAAUAUGCCCUCAGAGCACGAGAACAUCUUGGGAUGCAGAGGAGGCAGGCUUCGGUGGCGCGAUAGCGCCAACGUCCUCAACCUCCAAUGCAUCCCACCACAUGAGGAUGCCUGAAGAGCCUUGGUUUUUUG, -6.49.
With GACCAAUAGGCCCUCAGAGCUCGAGAACAUCUUCGGAUGCGGAGGAGGCAGGCUUCGGUGGCGCGAUAUCGCCAACGUCCUCAACCUCCAAUGCAUCCCACCACAUGAUGAUGCCUGAAGAGCCUUGGUUUUUUG the figure was -0.102; with GACCAAUAAGCCCUCAGAGCUCGAGAACAUCUUCGGAUGCAGAGGAGGCUGGCUUCGGUGGCGCGAUAGCGCCAACGUCUUCACCCUCCAAUGCAUCCCACCACAUGAUGAUGCCUGAAGAGCCUUGGUUUUUUG, -2.54; with GACCAAUAUGCCCUCAGAGCACGAGAACAUCUUCGGAUGCAGAGGUGGCAGGCUUCGGUGGCGCGAUAGCGCCAACGUCCUCAACCUCCAAUGCAUCCCACCACAUGAUGAUGCCUGAAGAGCCUUGGUUUUUUG, -1.03.
As to GACCAAUAUGCCCUCAGAGCUCGAGAACAUCCUCGGAUGCAGAGGAGGAAGGCUUCGGUGGCGCGAUAGCGCCAACGUCCUCAACCUCCAAUGCAUCCCACCACAUGAUGAUGCCUGAAGAGCCUUGGUUUUUUG, the “polymerase ribozyme fitness (log ratio)” value came out at 0.0595.
On to GACCAAUAUGCCCUCAGAGCUCGAGAACAUCUUCGGAUGCAGAGGAGGCAGGCUUCGGUGGCGCGAUAGCGCCAACGUCCUCAACCUCCAAUGCAUCCCACCACAUGAUGAUGCCUGAAGAGCCUUGGUUUUUUU, for which the “polymerase ribozyme fitness (log ratio)” value is -0.432.
With GACCAAUAUGCCCUCAGAGCUCGAGAACAUCUUCGGAUGCAGAGGAGGCAGGCUUCGGUGGCGCGAUAGCGCCAACGUCCUCAACCUCCAAUGCAUCCCACCACAUGAUGAUGCCUGAAGAGCCUUGGUGUUUUG the figure was 0.269; with GACCAAUAUGCCCUCAGAGCUCGAGAACAUCUUCGGAUGCAGAGGAGGCAGGCUUCGGUGGCGCGAUAGCGCCAACGUCCUCAACCUCCAAUGCAUCCCACCACAUGAUGAUGCCUGAACAGCCUUGGUUUUUUG, 1.71; with GACCAAUAUGCCCCCAGAGCUCGAGAACAUCUUCGGAUUCAGAGGAGGCAGGCUUCGGUGGCGCGAUAGCGCCAACGUCCUCAACCUCCAAUGCAUCCCACGACAUGAUGAUGCCUAAAGAGCCUUGGUUUUUUG, -6.22.
As for GACCAAUAUGCCCUCAGAGCUCGAGAACAUCUACGGAUGCAUAGGAGGCAGGCUUCGGUGGCGCGAUAGCGCUAACGUCCUCAACCUCCAAUGCAUCCCACCACAUGAUGAAGCCUGAAGAGACUUGGUUUUUUG, the figure is -5.52.
For the variant GACCAAUAUGCCCUCAGAGCUCGAGAACAUCUUCGGAUGCAGAGGAGGCAGGCUUCGGAGGCGCGAUAGCGCCAACGUCCUAAACCUCCAAUGCAACCCACCACAUGAUGAAGCCUGAAGAGCCUUGGUUUUUUG, the “polymerase ribozyme fitness (log ratio)” value was found to be 0.158.
Turning to GACCAAUAUGCCCUCAGAGCUCGAGAACAUCUUCGGAUGCAGAGGAGGCAGGCUCCGGUGGCGCGAUAGCGCCAACGUGCUCAACCUCCAAUGAAUCCCACCACAUGAUGAUGCCUGAAGAGCCUUGGUUUUUUG, the “polymerase ribozyme fitness (log ratio)” value is -3.64.
With GACCAAUAUGCCCUCAGAGCUCGAGAACAUCUUCGGAUGCAGAGGAGGCAGGCUUCGGUGGCGCGAUAGCGCCAACGUCCUCAACCUCCAAUGCAUCCCACCACAUGAUGAUUCCUGAAGAGCCUUGGUUUUUUG, the “polymerase ribozyme fitness (log ratio)” value was -1.81.
With GACCAAUAUGCCCUCAGAGCUCGAGAACAUCUUCGGAUGCAGAGGAGGCAGGCAUCGGUGGUGCGAUAGCGCCAACGUCCUCAACCUCCAAUGCAUCCCACCACAUGAUUAUGCCUGAAGAGCCCUGGUUUUUUG the figure was -1.99.
